Experimental data reported in the DeepSol protein solubility set.

Test: soluble on expression in E. coli; label from the status in PepcDB or PDB records

**Q.** Which “soluble on expression in E. coli” value does the source give for “MSLKYKAIAAGLLAAHLLAHPISSLAETKKFPDVSDSAWSKDAIYYLVERNVINGMPDGNFMPYGNLTRAQAAKIIATAIGAKVDPNAKPSYNDAKNSWAASFIAAMEKENIIKGREPGVFDPEGKVTRAEMAAMLVRAYNLKSKVTGPVPTKFADLENHWGKEEVNILVELKLSLGTENGWKPNDSITREQAAQLTAQTDKFSKNSDRPVEEGHHHHHH” here?
**A.** soluble

**Q.** For “MVYTVDFKEVATIGLESSPVAPALAGLRANEARYFWNKYKHRFTTVPASEAPETLAWIEKILLERELHFPYKPLEISSFTLDGIKMAYVFYENGLAVNVMYTLAEEGKRAVGFKLSDGMAIPAEFEGKFKFARQKSKLAGTIRGSYFVIKGTY”, which “soluble on expression in E. coli” value is on record?
**A.** soluble

**Q.** Which “soluble on expression in E. coli” value does the source give for “MSDLKYTVTADVLNVRSGAGTGHSVISKVKQGQVLQVIGQENGWFKVTVNGQTGYVSGDFVTTGGKTGTTVQQGTGTYTVNVSSLNVRTGPSTSHTVLGSVNKGKTVQVVSEVQDWFKINFNGGTGYVSKDFVTKGGSALEHHHHHH” here?
**A.** soluble

**Q.** Which “soluble on expression in E. coli” value does the source give for “MSLATLAELYEFLETKQDDSHLDSRFSYDAFLPVEQPKARLEILTWWKIERLIEDENCNFDKNFIVSYFDERVKATNNQLLKYRYNYFISLLTNDNRYAKQSIDALIAVINTLLPKDKEDYPHVAEKAIEVLMSLIKRVKYKIPEATDLIWGVLESDYGYRTKMVCIRLAKEKGFFPSRDAKKIVCLCKDLLSLVKDSWRENCCELGLFYSSKIQGEAKPYMNFFYEALGDMEMGQLVDPATAPNNIAIPWMNEDHSQKAMAFYQKAGLTQKRNRAELAFRENKKKMVMLHFKIEKKTDKKIVEYFGNLEKELLEGKLSWLLENLSCPVRFLFPSYEQIRLRMSASKSTVEKLGFENKIMDINGNSKDAGKDFDLRQKYGIWLMNIVRNTVINMILTAVNIKQLTYSKLRKWFLKNTCFGIQLEYTRSGQVVTTTWFSQIDYGVEALIKQYNRFLQGKPTDWRLPVDILSIRFEGILRDMVGDYGGCVTKVGRDNSISQALLDDLLREPCLLQIFRKEDIEFFEYVFTAKGYNIRNYVAHAFYIPQDYGMIEATLVFLCILRLTMFSPKSKTITANEGHHHHHH” here?
**A.** not soluble

**Q.** With “GFLSHLDIVSTFNDHLAQRHDLDPYTVTLTVREGGEVVYIGCRNSAQPLGHTFRIGMRLPAPFTATGKILLSDLGPGELRMLFSQFPQPLTSRSVAGLSQLEEELALTRARGYSIDDGQIREGMLCIGAAIRDYSGAASAGIAISLIRSEASDEKIASLGEELRTTANALSEKLGYRSQKD” as the sequence, how does the “soluble on expression in E. coli” value read?
**A.** soluble

**Q.** For “MASVHGTTYELLRRQGIDTVFGNPGSNELPFLKDFPEDFRYILALQEACVVGIADGYAQASRKPAFINLHSAAGTGNAMGALSNAWNSHSPLIVTAGQQTRAMIGVEALLTNVDAANLPRPLVKWSYEPASAAEVPHAMSRAIHMASMAPQGPVYLSVPYDDWDKDADPQSHHLFDRHVSSSVRLNDQDLDILVKALNSASNPAIVLGPDVDAANANADCVMLAERLKAPVWVAPSAPRCPFPTRHPCFRGLMPAGIAAISQLLEGHDVVLVIGAPVFRYHQYDPGQYLKPGTRLISVTCDPLEAARAPMGDAIVADIGAMASALANLVEESSRQLPTAAPEPAKVDQDAGRLHPETVFDTLNDMAPENAIYLNESTSTTAQMWQRLNMRNPGSYYFCAAGGLGFALPAAIGVQLAEPERQVIAVIGDGSANYSISALWTAAQYNIPTIFVIMNNGTYGALRWFAGVLEAENVPGLDVPGIDFRALAKGYGVQALKADNLEQLKGSLQEALSAKGPVLIEVSTVSPVKHHHHHH”, which “soluble on expression in E. coli” value is on record?
**A.** soluble

**Q.** Which “soluble on expression in E. coli” value does the source give for “MGELANCPKCNALFLKTKLQTVCQACIKEEEKSFETVYKFLRKQENRQSTLSRITEETGVEEELILKFIRQKRIQITHLPNLAYPCERCGTSIREGKFCKACQSDIKDQMDHLNHEDALKIEKENSKKDTYYAYNTKNSLEHHHHHH” here?
**A.** soluble

**Q.** With “MGAIAPSSNILAKAMVDAIDFEVAKCIVELGPGTGSFTKEIMKRKKKRTTFILIEINEVFFKKLQKQYEDDASVVVIHGSAENIQRYVEELQIKGVDYVLSGLPFTSLPKEESSRILNNVMESLRENGRFITFQYSLVKKGFIEDFFPDIQLKKVWFNFPPAYVFSCKKSLEHHHHHH” as the sequence, how does the “soluble on expression in E. coli” value read?
**A.** soluble

**Q.** Which “soluble on expression in E. coli” value does the source give for “MGSDKIHHHHHHMYYPYWQLGGTPWYQPPVQQQAPPYFQLPPLYTGPYSSPYQTSLVPYLTRPLRTPETPQDRTRTIMRDLMTAIDGEHRAIQCYQQMAQHAPTKKEQQQIEEIITDEQRHLRTFSALYQQITEKQHEPTTDQKISHNYEKALAFAVEEEQKTVDFYLEVADHAPNLQIREAFQRAAKDEQNHAVWFLYFLTKRLTSKL” here?
**A.** not soluble

**Q.** Which “soluble on expression in E. coli” value does the source give for “GMTYELSTDREFDLIAIGRACIDLNAVEYNRPMEETMTFSKYVGGSPANIVIGSSKLGLKAGFIGKIADDQHGRFIESYMRGVGVDTSNLVVDQEGHKTGLAFTEIKSPEECSILMYRQDVADLYLSPEEVNEAYIRRSKLLLVSGTALSKSPSREAVLKAIRLAKRNDVKVVFELDYRPYSWETPEETAVYYSLVAEQSDIVIGTREEFDVLENRTEKGDNDETIRYLFKHSPELIVIKHGVEGSFAYTKAGEAYRGYAYKTKVLKTFGAGDSYASAFLYALISGKGIETALKYGSASASIVVSKHSSSDAMPSVEEIEALIEKDETITIA” here?
**A.** soluble

**Q.** For “AIYVDLPNRQLKVKVADRRVISTTDAERQAVTPPGLQEAINDLVKKYTLARAFVRPSGTEDIVRVYAEANSQESADRLAYEVSLLVFQLAGGIGERPQP”, which “soluble on expression in E. coli” value is on record?
**A.** soluble

**Q.** Which “soluble on expression in E. coli” value does the source give for “MGGSHHHHHHGMASALASEAPSPPRSPPPPTSPEPELAQLRRKVEKLERELRSCKRQVREIEKLLHHTERLYQNAESNNQELRTQVRGPPQPRAPSSPGEAFEARDSLGRGPWQGLRTTVEYLK” here?
**A.** not soluble

**Q.** With “MLHKRFRRYSMLKRYGQIIEVLQKYGFGYIVDQIGLGSFGDFTSRLKKQEKRDEHNLSGPVRTRRILEELGPTYIKLGQLLSMRRDLVPLEYAAEFSKLQDDAPSFGFEEVELIIREELGLPVEDLFESFEKKPLACASIGQVHRAKLKNGDDVVVKVQRPGIKEVIESDLDIMYSLSRLLTEHIPEARLYRPVELVDELSRSILAEIDYSQEGWNTDRFAENFKDSEQIHIPKVYWDYTGLEHHHHHH” as the sequence, how does the “soluble on expression in E. coli” value read?
**A.** not soluble

**Q.** With “MGSDKIHHHHHHMPNNALLQIKQDTLSLIDDLKVICTSFGLGNDGNEYKIITQCFLYKFLCDKFEFLFEQEFPNQTIQDYKDFNKEEKEEFFITLTDKRLPKLAYDDLLNYLFEKHFNDNDLHLKLDIIFNRISSNNAELFNTTSTDKTTIALFESISQYINEESKRANFTRVLLDKLKKFNFKQAFLNLQNQQGYDFFAPIFEYLLKDYNNAGGGKYAEYYTPLSIASIIAKLLINEPTRNVKIYDPSAGTGTLLMALAHQIGTDSCTLYAQDISQKSLRMLKLNLILNDLTHSLRNAIEGNTLTNPYHSKDFKGKMDYIVSNPPFKLDFSNEHAEISQNKNDFFLGVPNIPKNNKSKMPIYTLFFQHCLNMLSNKGKGAIIVPTGFISAKSGVENKIIRHLVDERLVYGVVCMPSQVFANTGTNVSIIFFQKTPSAKEVVLIDASKLGEEYTENKNKKTRLRPSDIDLILETFQNKTKKSDFCALVSFDEITEKIIL” as the sequence, how does the “soluble on expression in E. coli” value read?
**A.** not soluble

**Q.** For “MELKEELLRGIYGFGFEKPSAIQKSAVAPCTTGKDVTIQSQAGSGKTVISLIDILQGIDCEDAHLQVILLAPQRGMAQRAHEQLKSLGRNLNVNATCLGFDTTAENDKISHVLMGTPKDFLSNIPSDTSRIKMFVLDEADEMLSKGFKDQIYEVFRSMPQDVQVVLLSATMPSEVLDVTNRFMRDPIRILVKKDELTLEGIRQFYINVQKDEWKFNCLCDLLKTSRETQALIFCNTRRRVTQLTEQLMSIPIKVSCFHGNMEHNEREDMVKDFNSRNTRVLVTTDLMARGMNIRKSLIINYDVSGNMENYMLRNGRQGNFGSKGLPISFFTENDISDLKKIENHYSTRIEEMPESFLEYLDEN”, which “soluble on expression in E. coli” value is on record?
**A.** not soluble

**Q.** Which “soluble on expression in E. coli” value does the source give for “GPGSMDCWNTRRDSKEFQHEAVEMDSLQANCGAPNEQAFHDTLVSAAYQLRARQRDTNVSISKAEMEGLVVLTRELENFKQMMKRSEFTVEGTWRIVEDGGMVERFGQQLYAELLTRNPRLRVHFHGVDIEEQSKSLLRMVGTAVHFYQKPQLTVDMFTKAGARHRGYGVNAEVFVEMRNAFMRVFSEFVGTDVFEAVEEEWRKFWKYVLDLLVHGSESAEGERYGKMYEEKMLKTIQADFKLIMERQNKCDLRGQFVSVMYSKAIEMHEELSKFEALKDLRASARVLQAYIDIINNIHDKKLLDEYMRELGGRHTAYNVTVENLQAFTEPFLFTCRHFFEEEWNIAAESRFLWLFEYMIDGISAGMVSDINSIVNLRAPSNSVTFGLIFTDIEASTRLWSKDSKSMSLAVKSHHAMIRRLIADYGAYEVKTVGDSFIIATKDVLVAVKLSLAIQLELMRMAPIAPGFAMVDSTEGHGDPQAWDDRTLRVRIGVEHCTDATATYDTIHRRYDYYGASVNRCARIEAAACGGQILLCRESFEYLKSMPEFHNDPCPHFLRHVEIATPPPKVDSRGLDHFVVVSDVGLASFKGIAEPVHLLSLVPRCLAGRQFTEKFTKVSE” here?
**A.** not soluble

**Q.** Which “soluble on expression in E. coli” value does the source give for “MGDVQMGNCLRIPSANMAPALPEHGTAEASTSNPMPHAGNMTAGPQEHTAVEGCAGRQIADMWLSSLERPARRPSGSRSQPTAQSRPQSKLEKLTEQRQSMLQRAIILEDQWRSLQERCARTSVGGRQAFNLDILKGIIDRDKQALERMGGEGSYIAERHLHRIERTLQDFEKKISNQKKLQSHLAKANDFLARLKLLKDELSSRGENKDILNDIDLNIKDLEGILNELTRIEANGAGIQYDGCRGGAIAYFDSVTISLEAMLRSQDSGYFDYMRPALANVLQDGYSPSRRKAVSDAGMRGGASDGIS” here?
**A.** not soluble

**Q.** For “MRIQVNAKGAARLLSRHLWVFRRDVVSGPETPGLYPVYWGRRFLALALYNPHTDLAVRAYRFAPAEDPVAALLENLAQALARREAVLRQDPEGGYRLVHAEGDLLPGLVVDYYAGHAVVQATAHAWEGLLPQVAEALRPHVQSVLAKNDARTRELEGLPLYVRPLLGEVPERVQVQEGRVRYLVDLRAGQKTGAYLDQRENRLYMERFRGERALDVFSYAGGFALHLALGFREVVAVDSSAEALRRAEENARLNGLGNVRVLEANAFDLLRRLEKEGERFDLVVLDPPAFAKGKKDVERAYRAYKEVNLRAIKLLKEGGILATASCSHHMTEPLFYAMVAEAAQDAHRLLRVVEKRGQPFDHPVLLNHPETHYLKFAVFQVL”, which “soluble on expression in E. coli” value is on record?
**A.** soluble

**Q.** Which “soluble on expression in E. coli” value does the source give for “HVYILGKIPSPLTLIKAFADVRPSFVIMVPLIIEKLYHKAIAPKIKTPLIKFLLRLPVLKKVIHKSIRSKLIESFGGNFRQIIIGGAALNDEVAHFLYRIGFPLTVG” here?
**A.** not soluble

**Q.** With “GPGSMEPNFFNNSGLMLLCKDGSAVRAIDVLKDAEYVLMYFSAHWCPPCRTFTPMLKSFYETHHAKKKFEVVFMSSDRSEEEMMSYFRESHGDYYCLPYADARSMARVWGDTYKFKTIPTLLVFENANPRKLIARCGREMVIKDPLGNLFPWPDADAQQPAESFIFDYTRKAAIVLGISVLLYSLISRSL” as the sequence, how does the “soluble on expression in E. coli” value read?
**A.** not soluble

**Q.** Which “soluble on expression in E. coli” value does the source give for “MGQSTSKVPPSSPPNEPKFVQNTPISSPGFGRAQTMLDVSQLAAAAATLDAPTLQRSSSDTALNTSMTTTTVTQTACQKSYQQALEWGRNEQFLKLAHTFHTNNY” here?
**A.** not soluble
